Source: US20240192215A1 (E AND S HEALTHCARE, published 2024)

Experiments:
[1] = target: T1, Peptide_004 (human); assay: peptide microarray, 0.04 ug/mL
T1 construct: 15-mer on microarray; not native form, recombinant insert region
T1 peptide: AADVHSQHHHHHHHH
Experimental: (§1) 5, 1, 0.2, 0.04, 0.008 and 0.0016 μg/mL serial dilutions were incubated on a single multi-well microarray slide at 30° C. for 1 hour. The slide includes 21 individual mini-arrays (one mini-array per sample dilution).
(§2) DyLight 650 was used as a label. False-positive binding to a peptide was evaluated by performing one additional control incubation in which only a secondary antibody was applied on the same microarray slide. Before performing each step, the microarrays were washed with a washing buffer.

[2] = target: T2, Peptide_005 (human); assay: peptide microarray, 0.04 ug/mL
T2 construct: 15-mer on microarray; not native form, recombinant insert region
T2 peptide: ADVHSQHHHHHHHHV
Experimental: as §1, §2

[3] = target: T3, Peptide_009; assay: peptide microarray, anti-mouse IgG DyLight 650, MMC2 heatmap (Example 17)
T3 peptide: SQHHHHHHHHVKQIE

[4] = target: T4, Peptide_087; assay: as above
T4 peptide: EVKCMPTFQFFKKGQ

[5] = target: T5, Peptide_072; assay: as above
T5 peptide: LEVDVDDCQDVASEC

[6] = target: T6, Peptide_037; assay: as above
T6 peptide: DKLVVVDFSATWCGP

[7] = target: T7, Peptide_102; assay: as above
T7 peptide: KVGEFSGANKEKLEA

[8] = target: T8, Peptide_107; assay: as above
T8 peptide: SGANKEKLEATINEL

[9] = target: T9, Peptide_101; assay: as above
T9 peptide: QKVGEFSGANKEKLE

[10] = target: T10, Peptide_031; assay: as above
T10 peptide: ALDAAGDKLVVVDFS

[11] = target: T11, Peptide_064; assay: as above
T11 peptide: EKYSNVIFLEVDVDD

[12] = target: T12, Peptide_032; assay: as above
T12 peptide: LDAAGDKLVVVDFSA

[13] = target: T13, Peptide_092 (human); assay: peptide microarray, 0.04 ug/mL
T13 construct: 15-mer of hTrx1 on microarray
T13 peptide: PTFQFFKKGQKVGEF
Experimental: as §1, §2

[14] = target: T14, Peptide_093 (human); assay: peptide microarray, 0.04 ug/mL
T14 construct: 15-mer of hTrx1 on microarray
T14 peptide: TFQFFKKGQKVGEFS
Experimental: as §1, §2

[15] = target: T15, Peptide_018 (human); assay: peptide microarray, 0.04 ug/mL
T15 construct: 15-mer on microarray; not native form, includes recombinant insert region; also called HVKQIESKTAFQEAL
T15 peptide: HVKQIESKTAFQEAL
Experimental: as §1, §2

[16] = target: T16, Peptide_012 (human); assay: peptide microarray, 0.04 ug/mL
T16 construct: 15-mer on microarray; not native form, includes recombinant insert region
T16 peptide: HHHHHHHVKQIESKT
Experimental: as §1, §2

[17] = target: T17, Peptide_023 (human); assay: peptide microarray, 0.04 ug/mL
T17 construct: 15-mer of hTrx1 on microarray
T17 peptide: ESKTAFQEALDAAGD
Experimental: as §1, §2

[18] = target: T18, Peptide_086 (human); assay: peptide microarray, 0.04 ug/mL
T18 construct: 15-mer of hTrx1 on microarray
T18 peptide: CEVKCMPTFQFFKKG
Experimental: as §1, §2

[19] = target: T19, Peptide_084 (human); assay: peptide microarray, 0.04 ug/mL
T19 construct: 15-mer of hTrx1 on microarray
T19 peptide: SECEVKCMPTFQFFK
Experimental: as §1, §2

[20] = target: T20, Peptide_094 (human); assay: peptide microarray, 0.04 ug/mL
T20 construct: 15-mer of hTrx1 on microarray
T20 peptide: FQFFKKGQKVGEFSG
Experimental: as §1, §2

[21] = target: T21, Peptide_051 (human); assay: peptide microarray, 0.04 ug/mL
T21 construct: 15-mer of hTrx1 on microarray
T21 peptide: PCKMIKPFFHSLSEK
Experimental: as §1, §2

[22] = target: T22, Peptide_020 (human); assay: peptide microarray, 0.04 ug/mL
T22 construct: 15-mer of hTrx1 on microarray
T22 peptide: KQIESKTAFQEALDA
Experimental: as §1, §2

[23] = target: T23, Peptide_013 (human); assay: peptide microarray, 0.04 ug/mL
T23 construct: 15-mer on microarray; not native form, includes recombinant insert region
T23 peptide: HHHHHHVKQIESKTA
Experimental: as §1, §2

[24] = target: T24, Peptide_045 (human); assay: peptide microarray, 0.04 ug/mL
T24 construct: 15-mer of hTrx1 on microarray
T24 peptide: SATWCGPCKMIKPFF
Experimental: as §1, §2

[25] = target: T25, Peptide_024 (human); assay: peptide microarray, 0.04 ug/mL
T25 construct: 15-mer of hTrx1 on microarray
T25 peptide: SKTAFQEALDAAGDK
Experimental: as §1, §2

[26] = target: T26, Peptide_085 (human); assay: peptide microarray, 0.04 ug/mL
T26 construct: 15-mer of hTrx1 on microarray
T26 peptide: ECEVKCMPTFQFFKK
Experimental: as §1, §2

[27] = target: T27, Peptide_015 (human); assay: peptide microarray, 0.04 ug/mL
T27 construct: 15-mer on microarray; not native form, includes recombinant insert region
T27 peptide: HHHHVKQIESKTAFQ
Experimental: as §1, §2

[28] = target: T28, Peptide_019 (human); assay: peptide microarray, 0.04 ug/mL
T28 construct: 15-mer of hTrx1 on microarray
T28 peptide: VKQIESKTAFQEALD
Experimental: as §1, §2

[29] = target: T29, Peptide_022 (human); assay: peptide microarray, 0.04 ug/mL
T29 construct: 15-mer of hTrx1 on microarray
T29 peptide: IESKTAFQEALDAAG
Experimental: as §1, §2

[30] = target: T30, Peptide_025 (human); assay: peptide microarray, 0.04 ug/mL
T30 construct: 15-mer of hTrx1 on microarray
T30 peptide: KTAFQEALDAAGDKL
Experimental: as §1, §2

[31] = target: T31, Peptide_095 (human); assay: peptide microarray, 0.04 ug/mL
T31 construct: 15-mer of hTrx1 on microarray
T31 peptide: QFFKKGQKVGEFSGA
Experimental: as §1, §2

[32] = target: T32, Peptide_021 (human); assay: peptide microarray, 0.04 ug/mL
T32 construct: 15-mer of hTrx1 on microarray
T32 peptide: QIESKTAFQEALDAA
Experimental: as §1, §2

[33] = target: T33, Peptide_014 (human); assay: peptide microarray, 0.04 ug/mL
T33 construct: 15-mer on microarray; not native form, includes recombinant insert region
T33 peptide: HHHHHVKQIESKTAF
Experimental: as §1, §2

B1: monoclonal antibody B266-1 (antibody, human IgG1)
light: QIVLTQSPAIMSASPGEKVTMTCSASSRISYMYWYQQKPGTSPKRWIYDTSKLASGVPARFSGSGSGTSYSLTISTMEAEDAATYYCHQRSSYPTFGAGTKLELKSVAAPSVFIFPPSDEQLKSGTASVVCLLNNFYPREAKVQWKVDNALQSGNSQESVTEQDSKDSTYSLSSTLTLSKADYEKHKVYACEVTHQGLSSPVTKSFNRGEC
heavy: not shown
notes: B266 with the Fc part changed to human IgG1; also called B266-1 (Trx1-hIgG1); B266-1 (hTrx1-hIgG1)
For B1, the “signal (blank-control = 1)” value [1] was 1.14 and the “signal (blank-control = 1)” value [2] was 1.6.

B2: monoclonal antibody B264 (antibody, mouse IgG1, kappa, V domains shown)
VH: QVQLQQSGAELARPGASVKMSCKASGYTFTSYTMHWVKQRPGQGLEWIGYINPTSDYTNYNQKFKDKATLTADKSSSTAYMQLSSLTSEDSAVYFCASEGGFLYYFDYWGQGTTLTVSS
VL: DVLMTQTPLSLPVSLGDQASISCRSSQSIVHSNGNTYLEWYLQKPGQSPKLLIYKVSNRFSGVPDRFSGSGSGTDFTLKISRVEAEDLGVYYCFQGSHVPYTFGGGTKLEIKR
notes: also called AB264; B264 (Trx1-mIgG1)
B2: no binding (tested: 5 ug/mL) [3]; no binding (tested: 5 ug/mL) [4]; no binding (tested: 5 ug/mL) [5]. B2: no binding (tested: 5 ug/mL) [6]; no binding (tested: 5 ug/mL) [7]; no binding (tested: 5 ug/mL) [8]. B2: no binding (tested: 5 ug/mL) [9]; no binding (tested: 5 ug/mL) [10]; no binding (tested: 5 ug/mL) [11]. For the same binder, the binding result [12] was “no binding (tested: 5 ug/mL)”, the “signal (blank-control = 1)” value [13] was 5.18 and the “signal (blank-control = 1)” value [14] was 2.46. The “signal (blank-control = 1)” value [15] was 1.64, the “signal (blank-control = 1)” value [16] was 1.15 and the “signal (blank-control = 1)” value [17] was 1.15. The “signal (blank-control = 1)” value [18] was 1.14, the “signal (blank-control = 1)” value [19] was 1.83 and the “signal (blank-control = 1)” value [20] was 1.49. The “signal (blank-control = 1)” value [21] was 1.41, the “signal (blank-control = 1)” value [22] was 1.33 and the “signal (blank-control = 1)” value [23] was 1.4. For the same binder, the “signal (blank-control = 1)” value [24] was 4.59, the “signal (blank-control = 1)” value [25] was 2.38 and the “signal (blank-control = 1)” value [26] was 1.48. For the same binder, the “signal (blank-control = 1)” value [27] was 1.69, the “signal (blank-control = 1)” value [28] was 1.2 and the “signal (blank-control = 1)” value [29] was 2.89. The “signal (blank-control = 1)” value [30] was 2.39, the “signal (blank-control = 1)” value [31] was 1.66 and the “signal (blank-control = 1)” value [32] was 1.35. The “signal (blank-control = 1)” value [33] was 1.49.
